Results taken from patent US20220213196A1 (published 2022).

Molecular target: T1, MAGEA3 peptide on HLA-A*01:01 (human)
T1 peptide: EVDPIGHLY
Assay: multimer staining

binding result: recognises
B1:  (TCR, V domains shown)
Valpha: KQEVTQIPAALSVPEGENLVLNCSFTDSAIYNLQWFRQDPGKGLTSLLLIQSSQREQTSGRLNASLDKSSGRSTLYIAASQPGDSATYLCAVDNYGQNFVFGPGTRLSVLP
Vbeta: RPQVTQNPRYLITVTGKKLTVTCSQNMNHEYMSWYRQDPGLGLRQIYYSMNVEVTDKGDVPEGYKVSRKEKRNFPLILESPSPNQTSLYFCASSTTGSSPLHFGNGTRLTVT
